In publication PMC6006217:

Experiments:
[1] = target: FcγRI on HEK293/FcγRI cells (human) (UniProt P12314)
[2] = target: BGB-A317/IgG4_(S228P) (human); assay: SPR; Biacore, human PD-1/His immobilised on a CM5 chip; the antibody captured on the PD-1/His surface; FcγRI injected over it
Chain of BGB-A317/IgG4_(S228P) (human) (heavy, as listed by the source, chain 1 of 2): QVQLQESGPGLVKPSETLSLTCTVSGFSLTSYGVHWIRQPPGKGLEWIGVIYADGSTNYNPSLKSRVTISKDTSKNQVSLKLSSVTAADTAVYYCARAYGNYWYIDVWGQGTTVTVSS
Chain of BGB-A317/IgG4_(S228P) (human) (light, as listed by the source, chain 2 of 2): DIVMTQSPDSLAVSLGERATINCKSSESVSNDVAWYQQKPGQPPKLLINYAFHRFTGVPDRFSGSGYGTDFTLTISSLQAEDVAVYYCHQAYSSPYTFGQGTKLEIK

IL-10 gene transcription (real-time PCR) in M2 macrophages seeded on PD-1-coated plates in the presence of the antibody, against huIgG baseline [1] [fold]	Ka [2] [M⁻¹]	Kd [2] [nM]	koff [2] [s⁻¹]	kon [2] [M⁻¹ s⁻¹]	Substance
< 5					BGB-A317/IgG4_(S228P) (antibody)
	3.57e+08	2.8	0.00199	712000	human FcγRI (from UniProt P12314 16-292) (receptor)
